From paper PMC4254802

Assays:
Assay in all cases: cross-linking
[1] = molecular target: endogenous ADAM10 of Cα cells (Chinese hamster (endogenous in Cα/CHO cells))
[2] = molecular target: TACE-B/ADAM10cyto (truncated human TACE with the cytoplasmic domain of ADAM10), Flag-tagged (human) (UniProt O14672)
[3] = molecular target: endogenous TACE of Cα cells (CHO cells that express TGF-α) (Chinese hamster (endogenous in Cα/CHO cells))

endogenous ADAM10 of Cα cells (enzyme)
stoichiometry N [1]: 2

TACE-B/ADAM10cyto (truncated human TACE with the cytoplasmic domain of ADAM10), Flag-tagged (from UniProt O14672 694-748)
stoichiometry N [2]: 2

endogenous TACE of Cα cells (CHO cells that express TGF-α) (enzyme)
stoichiometry N [3]: 2
